Data on five molecules can be found in US20260015426A1.

First the molecules themselves.
B1: 8H1 (purified mAb from hybridoma 8H1) (antibody, V domains shown)
VH: QVQLQQSGPELVKSGASVRISCKASGYAFSGSWMNWVKQRPGKGLEWIGRIYPGDGNTNYNGKFKDKATLTADKSSSTAFMQLSSLTSEDSAVYFCARDYYLFYFDYWGQGTTLTVSS
VL: NIVMTQTPKFLPVAAEDRVIITCKASQDVSNEVAWYQQKPGQSPKLLMYYASNRYTGVPDRFTGSGSGTDFTFTISSVQVEDLAVYFCQQHYSSPLTFGAGTKLELK
B2: 9D5 (purified mAb from hybridoma 9D5) (antibody, V domains shown)
VH: QVQLQQSGAELARPGASVKFSCKASGYTFTSYWMQWVKQRPGQGLEWIGTIYPGDGNTRYTQKFKGKATLTADKSSSTAYMQLSGLASEDSAVYYCARGYFGNLVFDVWGAGTTVTVSS
VL: DIKMTQSPSSMYASLGERVTITCKASQDINTYLSWFLQKPGKSPKTLIYRADRLVDGVPSRFSGGGSGQDYSLTISSLEYEDLGIYYCLQYDEFPYTFGSGTKLEIK
B3: 10A11 (purified mAb from hybridoma 10A11) (antibody, V domains shown)
VH: EVQLQQSGAELVKPGASVRLSCTSSGFNIKDYFMHWVKQRTEQGLEWVGRIDPEDGETQYAPNFQDKATITVDTSSNTVYLQLSSLTSEDTAVYYCFRPLYYGNSPWFAYWGQGTLVTVSP
VL: DIQMTQTTSSLSASLGDRVTISCRASQDISNYLNWYQQKPDGTVKLLIYYTSTLHSGVPSRFSGSGSGTDYSLTISNLEPEDIATYYCHQYSKFPPTFGSGTKLEIK
B4: 11C5(Hy) (purified mAb from the 11C5 hybridoma) (antibody, V domains shown)
VH: EVQLVESGGGLVKPGGSLKLSCAASGFTFSNYAMSWVRQTPEKRLEWVATVTEGGDYNYCLDDVKGRFTISRDNANDNLYLQMSHLKSEDSARYYCARDRWPYFFDYWGQGTTLTVSS
VL: DIQMTQSPASLSVSVGETVTITCRASENIYSNLAWYQQKQGRSPQLLVYGAKNLADGVPSRFSGSGSGTQYSLNINSLQSEDFGTYYCQHFWTTPRTFGGGTKLEIK
B5: 13D8 (purified mAb from hybridoma 13D8) (antibody, V domains shown)
VH: EVQLVESGGGLVKPGGSLKLSCTASGFTFSNYAMSWVRQTPEKRLEWVATISDGGNYTYYPDNVKGRFTISRDIAKNNLYLQMSHLKSEDTAMYYCARDRWPYFFDFWGQGTTLTVSS
VL: B4 VL with E27D, Q38E, R42K, K52T, N74K, T85S, T97S, I106L

Changes are numbered by the printed parent chain.

Chain of hu-M-IL1RAP-D1 construct, positions S21-Q133 (human) (chain, as listed by the source limits assumed): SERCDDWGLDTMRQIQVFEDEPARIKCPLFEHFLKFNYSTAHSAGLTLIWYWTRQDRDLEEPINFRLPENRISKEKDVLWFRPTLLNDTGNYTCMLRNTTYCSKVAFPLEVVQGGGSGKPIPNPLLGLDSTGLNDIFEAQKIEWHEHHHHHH

The target of one test is hu-M-IL1RAP-D3 construct, positions K238-T367 (human). The test is described as follows: ELISA, mAb at 10 nM. For orientation: In an ELISA, binding on a coated surface is turned into a signal by an enzyme label.
Chain of hu-M-IL1RAP-D3 construct, positions K238-T367 (human) (chain, as listed by the source limits assumed): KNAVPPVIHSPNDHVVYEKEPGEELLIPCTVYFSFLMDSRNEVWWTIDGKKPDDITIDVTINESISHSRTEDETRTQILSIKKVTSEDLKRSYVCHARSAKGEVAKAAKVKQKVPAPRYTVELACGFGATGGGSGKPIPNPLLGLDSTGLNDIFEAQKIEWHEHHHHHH
Molecule B1 gave an A450 of 0.045 A450.

The molecule B2 displayed an A450 of 0.045 A450.

A further test deals with hu-M-IL1RAP-D1D2 construct, positions S21-P237 (human). Kind of test: ELISA, mAb at 10 nM.
Chain of hu-M-IL1RAP-D1D2 construct, positions S21-P237 (human) (chain, as listed by the source limits assumed): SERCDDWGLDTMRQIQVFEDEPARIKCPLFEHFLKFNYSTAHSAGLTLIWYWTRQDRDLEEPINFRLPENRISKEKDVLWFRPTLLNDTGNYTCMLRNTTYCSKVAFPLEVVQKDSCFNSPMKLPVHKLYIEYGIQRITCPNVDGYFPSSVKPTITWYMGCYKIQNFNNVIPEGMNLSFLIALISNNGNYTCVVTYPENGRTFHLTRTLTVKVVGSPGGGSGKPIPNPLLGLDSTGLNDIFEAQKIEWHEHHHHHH
On to B3, for which the A450 was 0.046 A450.

As for B4, the A450 was 0.048 A450.

The molecule B5 returned an A450 of 0.044 A450.

The next test concerns the target hu-M-IL1RAP-D1 construct, positions S21-Q133 (human). Kind of test: ELISA, mAb at 10 nM.
Take B1: the A450 was determined as 0.045 A450.

Molecule B2 displayed an A450 of 0.047 A450.

In turn, B3 came in with an A450 of 0.046 A450.

B4 returned an A450 of 0.048 A450.

B5 returned an A450 of 0.046 A450.
